In IntAct's records for PubMed 9012831:

B1: Tyrosine-protein kinase BTK (Homo sapiens), Q06187 (parent)
chain: MAAVILESIFLKRSQQKKKTSPLNFKKRLFLLTVHKLSYYEYDFERGRRGSKKGSIDVEKITCVETVVPEKNPPPERQIPRRGEESSEMEQISIIERFPYPFQVVYDEGPLYVFSPTEELRKRWIHQLKNVIRYNSDLVQKYHPCFWIDGQYLCCSQTAKNAMGCQILENRNGSLKPGSSHRKTKKPLPPTPEEDQILKKPLPPEPAAAPVSTSELKKVVALYDYMPMNANDLQLRKGDEYFILEESNLPWWRARDKNGQEGYIPSNYVTEAEDSIEMYEWYSKHMTRSQAEQLLKQEGKEGGFIVRDSSKAGKYTVSVFAKSTGDPQGVIRHYVVCSTPQSQYYLAEKHLFSTIPELINYHQHNSAGLISRLKYPVSQQNKNAPSTAGLGYGSWEIDPKDLTFLKELGTGQFGVVKYGKWRGQYDVAIKMIKEGSMSEDEFIEEAKVMMNLSHEKLVQLYGVCTKQRPIFIITEYMANGCLLNYLREMRHRFQTQQLLEMCKDVCEAMEYLESKQFLHRDLAARNCLVNDQGVVKVSDFGLSRYVLDDEYTSSVGSKFPVRWSPPEVLMYSKFSSKSDIWAFGVLMWEIYSLGKMPYERFTNSETAEHIAQGLRLYRPHLASEKVYTIMYSCWHEKADERPTFKILLSNILDVMDEES

Variants of: B1
Conditions: with gtf2i_human GTF2I

effect of a mutation on the interaction | Variant
decreasing interaction | Y551F
decreasing interaction | Y223F
decreasing interaction | R307K
